Laboratory results as given in US20190055314A1.

Columns and labels:
[1] = molecular target: purified C1q component of the human complement (human) (UniProt P02745); assay: ELISA, direct binding of antibody to purified human complement C1q, A450
Hu_CRD2 (human) = Hu_CRD2 (human) (UniProt Q07011); assay: flow cytometry, yeast display [Cont.]
Hu_CRD1-CRD2 (human) = Hu_CRD1-CRD2 (human) (UniProt Q07011); assay: flow cytometry, yeast display [Cont.]
Hu_CRD4 (human) = Hu_CRD4 (human) (UniProt Q07011); assay: flow cytometry, yeast display [Cont.]
Hu_CRD4 (human), sequence (Q07011 119-159 limits assumed): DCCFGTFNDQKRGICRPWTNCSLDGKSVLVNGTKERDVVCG

Hu_CRD2-CRD3 (human) = Hu_CRD2-CRD3 (human) (UniProt Q07011); assay: flow cytometry, yeast display [Cont.]
Hu_CRD2-CRD3 (human), sequence (Q07011 46-118 limits assumed): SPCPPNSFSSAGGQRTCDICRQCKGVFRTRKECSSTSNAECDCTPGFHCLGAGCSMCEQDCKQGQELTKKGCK

[2] = molecular target: full-length mouse CD137 on the cell surface (mouse) (UniProt P20334); assay: flow cytometry, yeast display [Cont.]
full-length mouse CD137 on the cell surface (mouse), sequence (P20334 24-178 limits assumed): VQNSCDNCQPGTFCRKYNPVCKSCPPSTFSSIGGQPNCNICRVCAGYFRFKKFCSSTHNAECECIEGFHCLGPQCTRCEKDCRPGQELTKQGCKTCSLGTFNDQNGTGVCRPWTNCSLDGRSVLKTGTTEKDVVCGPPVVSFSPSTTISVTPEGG

Hu_CRD3-CRD4 (human) = Hu_CRD3-CRD4 (human) (UniProt Q07011); assay: flow cytometry, yeast display [Cont.]
Hu_CRD3-CRD4 (human), sequence (Q07011 87-159 limits assumed): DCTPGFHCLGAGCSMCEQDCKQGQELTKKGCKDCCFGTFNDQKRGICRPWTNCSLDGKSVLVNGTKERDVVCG

[3] = molecular target: full-length human CD137 on the cell surface (human) (UniProt Q07011); assay: flow cytometry, yeast display [Cont.]
full-length human CD137 on the cell surface (human), sequence (Q07011 18-255): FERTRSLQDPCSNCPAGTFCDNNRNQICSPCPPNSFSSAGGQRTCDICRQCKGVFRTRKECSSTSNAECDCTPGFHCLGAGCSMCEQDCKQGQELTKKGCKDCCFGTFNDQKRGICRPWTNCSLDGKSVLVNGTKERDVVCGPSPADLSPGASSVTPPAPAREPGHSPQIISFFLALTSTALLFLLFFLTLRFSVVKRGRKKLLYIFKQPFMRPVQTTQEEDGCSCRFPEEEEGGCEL

[4] = molecular target: Hu_CRD1-CRD2-CRD3 (human) (UniProt Q07011); assay: flow cytometry, yeast display [Cont.]
Hu_CRD1-CRD2-CRD3 (human), sequence (Q07011 24-118 limits assumed): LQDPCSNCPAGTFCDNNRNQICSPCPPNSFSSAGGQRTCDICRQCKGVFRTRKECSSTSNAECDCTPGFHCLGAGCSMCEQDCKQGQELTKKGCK

[5] = molecular target: Hu_CRD2-CRD3-CRD4 (human) (UniProt Q07011); assay: flow cytometry, yeast display [Cont.]
Hu_CRD2-CRD3-CRD4 (human), sequence (Q07011 46-159 limits assumed): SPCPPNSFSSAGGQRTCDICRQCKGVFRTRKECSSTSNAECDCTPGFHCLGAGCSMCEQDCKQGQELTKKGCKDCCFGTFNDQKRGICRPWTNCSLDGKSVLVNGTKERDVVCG

CD95 = assay: flow cytometry, HEK293F cells expressing the receptor, antibody 100 nM [Cont.]
CD95, sequence (chain, as listed by the source limits assumed): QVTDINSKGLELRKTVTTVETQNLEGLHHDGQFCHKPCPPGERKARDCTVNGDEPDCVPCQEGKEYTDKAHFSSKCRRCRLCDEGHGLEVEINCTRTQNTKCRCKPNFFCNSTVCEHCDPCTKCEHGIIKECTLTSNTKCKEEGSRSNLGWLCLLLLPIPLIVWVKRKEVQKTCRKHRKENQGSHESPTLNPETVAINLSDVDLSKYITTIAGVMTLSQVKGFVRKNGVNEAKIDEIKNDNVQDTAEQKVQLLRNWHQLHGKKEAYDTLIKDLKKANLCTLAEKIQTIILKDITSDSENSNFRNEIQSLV

[6] = molecular target: CD40 overexpressed on HEK293F cells (UniProt P25942); assay: as above
CD40 overexpressed on HEK293F cells, sequence (P25942 21-277 limits assumed): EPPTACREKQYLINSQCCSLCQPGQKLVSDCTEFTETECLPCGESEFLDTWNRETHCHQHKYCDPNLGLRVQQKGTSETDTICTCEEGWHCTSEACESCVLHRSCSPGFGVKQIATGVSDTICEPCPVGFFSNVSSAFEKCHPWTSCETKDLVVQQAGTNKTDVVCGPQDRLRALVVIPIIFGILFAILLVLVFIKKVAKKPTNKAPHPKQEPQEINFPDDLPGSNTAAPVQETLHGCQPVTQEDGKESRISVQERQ

[7] = molecular target: CD27 overexpressed on HEK293F cells (UniProt P26842); assay: as above
CD27 overexpressed on HEK293F cells, sequence (P26842 20-260 limits assumed): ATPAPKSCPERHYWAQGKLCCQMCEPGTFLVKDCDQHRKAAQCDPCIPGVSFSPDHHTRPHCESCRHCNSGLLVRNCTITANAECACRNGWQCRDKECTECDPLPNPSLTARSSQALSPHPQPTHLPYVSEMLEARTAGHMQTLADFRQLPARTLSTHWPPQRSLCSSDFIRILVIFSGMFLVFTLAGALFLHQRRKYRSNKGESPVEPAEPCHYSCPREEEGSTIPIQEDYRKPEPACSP

[8] = molecular target: OX40 overexpressed on HEK293F cells (UniProt P43489); assay: as above
OX40 overexpressed on HEK293F cells, sequence (P43489 29-277 limits assumed): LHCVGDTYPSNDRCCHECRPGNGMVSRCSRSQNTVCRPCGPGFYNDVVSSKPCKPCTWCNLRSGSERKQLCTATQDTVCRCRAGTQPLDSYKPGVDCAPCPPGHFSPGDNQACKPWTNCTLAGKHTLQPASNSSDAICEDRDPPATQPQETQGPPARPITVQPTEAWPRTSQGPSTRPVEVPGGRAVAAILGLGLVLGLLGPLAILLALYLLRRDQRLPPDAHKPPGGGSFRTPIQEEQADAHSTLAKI

[9] = molecular target: full-length human CD137 on the cell surface (human) (UniProt Q07011); assay: as above
[10] = molecular target: GITR overexpressed on HEK293F cells (UniProt Q9Y5U5); assay: as above
GITR overexpressed on HEK293F cells, sequence (Q9Y5U5 26-241 limits assumed): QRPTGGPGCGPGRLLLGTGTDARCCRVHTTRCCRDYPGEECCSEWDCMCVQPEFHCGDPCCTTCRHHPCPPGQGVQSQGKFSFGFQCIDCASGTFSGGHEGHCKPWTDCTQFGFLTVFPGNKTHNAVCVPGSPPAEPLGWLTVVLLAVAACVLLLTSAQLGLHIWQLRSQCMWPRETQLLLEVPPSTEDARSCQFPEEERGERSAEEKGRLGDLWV

[11] = molecular target: full-length monkey CD137 on the cell surface (cynomolgus monkey); assay: flow cytometry, PMA/ionomycin-activated monkey T cells, antibody 100 nM
full-length monkey CD137 on the cell surface (cynomolgus monkey), sequence (Q07011 other isoform, or with tags, fused parts or gaps): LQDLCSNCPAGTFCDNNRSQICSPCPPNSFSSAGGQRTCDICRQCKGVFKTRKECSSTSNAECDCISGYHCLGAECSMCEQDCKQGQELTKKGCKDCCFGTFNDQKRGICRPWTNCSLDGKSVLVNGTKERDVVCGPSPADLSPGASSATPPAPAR

Hu_CRD2 (human), sequence (Q07011 46-86 limits assumed): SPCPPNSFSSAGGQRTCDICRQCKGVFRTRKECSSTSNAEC
Hu_CRD1-CRD2 (human), sequence (Q07011 24-86 limits assumed): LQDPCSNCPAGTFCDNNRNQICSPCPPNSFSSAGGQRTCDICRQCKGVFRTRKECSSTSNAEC
purified C1q component of the human complement (human), sequence (P02745 23-245, chain 1 of 3): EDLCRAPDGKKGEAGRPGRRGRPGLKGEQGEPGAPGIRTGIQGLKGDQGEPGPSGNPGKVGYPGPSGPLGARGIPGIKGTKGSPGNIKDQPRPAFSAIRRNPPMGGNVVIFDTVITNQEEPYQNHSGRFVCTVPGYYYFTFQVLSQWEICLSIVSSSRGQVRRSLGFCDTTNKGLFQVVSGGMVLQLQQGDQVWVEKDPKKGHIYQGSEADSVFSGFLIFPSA
purified C1q component of the human complement (human), sequence (P02746 28-253, chain 2 of 3, further chain): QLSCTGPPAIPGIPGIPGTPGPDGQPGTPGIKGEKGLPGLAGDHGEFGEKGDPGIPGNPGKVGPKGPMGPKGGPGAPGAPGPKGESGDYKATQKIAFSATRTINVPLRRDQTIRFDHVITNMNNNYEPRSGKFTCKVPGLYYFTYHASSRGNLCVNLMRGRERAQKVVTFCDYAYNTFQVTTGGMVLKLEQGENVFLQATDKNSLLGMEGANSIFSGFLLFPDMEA
purified C1q component of the human complement (human), sequence (P02747 29-245, chain 3 of 3, further chain): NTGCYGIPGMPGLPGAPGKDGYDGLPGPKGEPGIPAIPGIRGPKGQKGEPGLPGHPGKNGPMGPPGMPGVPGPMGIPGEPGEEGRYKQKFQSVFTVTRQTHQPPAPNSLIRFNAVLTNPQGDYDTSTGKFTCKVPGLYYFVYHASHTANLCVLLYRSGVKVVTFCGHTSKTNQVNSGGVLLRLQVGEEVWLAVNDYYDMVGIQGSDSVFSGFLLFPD

human IgG1 isotype control antibody
EC50 (read off the curve) [1]: 2 nM

mouse CD137L (from UniProt P41274 104-309) (ligand)
% in upper right quadrant (Hu_CRD2 (human)): 0.16%
Mean (Hu_CRD2 (human)): 14600

Isotype (antibody)
% in upper right quadrant (Hu_CRD1-CRD2 (human)): 0.15%
Mean (Hu_CRD1-CRD2 (human)): 5560
% in upper right quadrant (Hu_CRD4 (human)): 0.23%
Mean (Hu_CRD4 (human)): 11000
% in upper right quadrant (Hu_CRD2-CRD3 (human)): 0.14%
Mean (Hu_CRD2-CRD3 (human)): 6280
% in upper right quadrant (Hu_CRD2 (human)): 0.18%
Mean (Hu_CRD2 (human)): 4650
% in upper right quadrant [2]: 0.18%
Mean [2]: 14800
% in upper right quadrant (Hu_CRD3-CRD4 (human)): 0.17%
Mean (Hu_CRD3-CRD4 (human)): 6860
% in upper right quadrant [3]: 0.14%
Mean [3]: 9600
% in upper right quadrant [4]: 0.1%
Mean [4]: 3680
% in upper right quadrant [5]: 0.2%
Mean [5]: 15000
Mean (CD95): 5140
Median [6]: 5730
Mean [7]: 48100
Mean [8]: 5300
Mean [9]: 7360
Mean [10]: 8970
% of cells positive for antibody binding [11]: 1.5%
